This is an account of results in patent US20110262358A1 (SAPPORO MEDICAL UNIVERSITY, published 2011).

The target in this assay is T1, HLA-A24 molecule (HLA-A2402) expressed on T2-A24 cells (human).
T1 construct: whole, on cells; MHC class I molecule on T2-A24 cells
The assay is described as follows: HLA-A24 stabilisation on T2A24 cells, flow cytometry with anti-HLA-A24 antibody. On the technique in general: A flow cytometer gives signals particle by particle.

Non-standard residues stand in square brackets, D forms with d. No end group written: not given here.

B1: or7c1_34(10) (peptide)
peptide: MYLVTFTGNL
As for B1, the binding result is listed as “binds”.

B2: or7c1_93(10) (peptide)
peptide: TYAGCLSQIF
notes: also called peptide 93(10)
Turning to B2, the binding result is listed as “binds”.

B3: or7c1_277(9) (peptide)
peptide: MYTMVTPML
As for B3, the binding result is recorded as “binds”.

B4: or7c1_131(10) (peptide)
peptide: HYTV[code i]MNPQL
notes: Synthetic OR7C1-derived peptide, printed HYTViMNPQL with a lower-case i
As to B4, the binding result is reported as “binds”.

B5: or7c1_251(10) (peptide)
peptide: FYGTGFGVYL
B5: the binding result is recorded as “binds”.
